Laboratory results published in paper PMC5292967, “New Insights on Signal Propagation by Sensory Rhodopsin II/Transducer Complex” (Scientific Reports, 2017).
Where two headings read alike, the source gives them in different places.

Experiments:
[1] = molecular target: T1, NpSRII/NpHtrII1-157 complex (sensory rhodopsin II with its cognate transducer) (Natronomonas pharaonis, UniProt P42196); assay: X-ray crystallography; format: binding; details: ground state; space group I212121; 1.9 A; in meso crystals, pH 5.6; covalent (retinal Schiff base, Lys205)
T1 construct: gene sop2; wild-type NpSRII with truncated transducer NpHtrII residues 1-157; produced in E. coli, reconstituted; 2:2 complex; with Sensory rhodopsin II transducer
T1 sequence (P42196 2-239): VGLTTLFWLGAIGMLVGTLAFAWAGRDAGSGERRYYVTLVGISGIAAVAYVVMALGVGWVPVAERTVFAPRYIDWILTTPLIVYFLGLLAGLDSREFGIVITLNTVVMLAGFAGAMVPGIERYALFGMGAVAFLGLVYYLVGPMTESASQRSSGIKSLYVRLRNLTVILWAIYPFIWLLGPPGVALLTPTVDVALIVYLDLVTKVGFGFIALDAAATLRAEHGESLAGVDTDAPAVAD
T1 sequence (P42259 1-157 partner): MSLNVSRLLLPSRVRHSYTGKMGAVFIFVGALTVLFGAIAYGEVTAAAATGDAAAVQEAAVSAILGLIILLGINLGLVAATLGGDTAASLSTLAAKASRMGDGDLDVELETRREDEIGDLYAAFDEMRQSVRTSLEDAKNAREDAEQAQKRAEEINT

[2] = molecular target: T2, NpSRII/NpHtrII1-135 complex (Natronomonas pharaonis, UniProt P42196); assay: X-ray crystallography; format: binding; details: space group P21212; covalent (retinal Schiff base, Lys205); retinal isomer not stated separately for this crystal
T2 construct: gene sop2; wild-type NpSRII with truncated transducer NpHtrII residues 1-135; produced in E. coli, reconstituted; 2:2 complex; with Sensory rhodopsin II transducer

[3] = molecular target: T3, NpSRII/NpHtrII1-135 complex (Natronomonas pharaonis, UniProt P42196); assay: X-ray crystallography; format: binding; details: ground state; covalent (retinal Schiff base, Lys205); retinal isomer not stated separately for this crystal
T3 construct: gene sop2; wild-type NpSRII with truncated transducer NpHtrII residues 1-135; produced in E. coli, reconstituted; 2:2 complex; with Sensory rhodopsin II transducer
T3 sequence (P42196 2-239): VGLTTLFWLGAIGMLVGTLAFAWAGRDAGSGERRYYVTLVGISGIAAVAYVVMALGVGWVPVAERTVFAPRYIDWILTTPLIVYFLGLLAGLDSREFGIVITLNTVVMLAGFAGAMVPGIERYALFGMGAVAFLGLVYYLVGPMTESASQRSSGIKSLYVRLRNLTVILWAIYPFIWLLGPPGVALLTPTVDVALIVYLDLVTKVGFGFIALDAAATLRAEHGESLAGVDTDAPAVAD
T3 sequence (P42259 1-135 partner): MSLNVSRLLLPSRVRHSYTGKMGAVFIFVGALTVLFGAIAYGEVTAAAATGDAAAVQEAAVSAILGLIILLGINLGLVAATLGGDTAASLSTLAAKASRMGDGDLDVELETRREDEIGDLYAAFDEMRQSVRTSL

[4] = molecular target: T1, NpSRII/NpHtrII1-157 complex (sensory rhodopsin II with its cognate transducer); assay: X-ray crystallography, trapped M intermediate; format: binding; details: active M state, light-induced; space group I212121; 1.9 A; covalent (retinal Schiff base, Lys205)
[5] = molecular target: NpHtrII (Natronomonas pharaonis) (UniProt P42259); details: cited from earlier work
[6] = molecular target: NpHtrII (Natronomonas pharaonis) (UniProt P42259); details: cited from earlier work; remark: listed apart in the source
[7] = molecular target: the molecule itself; assay: crystal structure; ground state, space group I2_(1)2_(1)2_(1), 1.9 Å; in meso crystallization (monooleoyl), 22 °C, 1 M Na/K phosphate pH 5.6, trehalose
[8] = molecular target: T4, sensory rhodopsin II from N. pharaonis (NpSRII) (N. pharaonis, UniProt P42196 1-239, retinal bound through a Schiff base (Lys205)); assay: as above; details: both partners purified
T4 construct: sensory rhodopsin II (NpSRII), N. pharaonis, wild type; also called the receptor; source: E. coli, purified, reconstituted into a functional complex, and resolubilized
T4 sequence (looked up): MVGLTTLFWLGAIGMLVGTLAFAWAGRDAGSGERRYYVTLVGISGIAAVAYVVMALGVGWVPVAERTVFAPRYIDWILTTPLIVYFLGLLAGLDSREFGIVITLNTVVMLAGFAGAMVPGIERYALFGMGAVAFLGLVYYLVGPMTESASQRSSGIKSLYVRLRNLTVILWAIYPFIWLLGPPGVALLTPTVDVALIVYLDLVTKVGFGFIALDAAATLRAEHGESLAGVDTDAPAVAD

[9] = molecular target: T4, sensory rhodopsin II from N. pharaonis …; assay: crystal structure; ground state of the complex with NpHtrII 1-135 (PDB 5JJJ); in meso crystals; space group not tied to this entry in the text (P6_(4) likely); details: both partners purified
[10] = molecular target: T4, sensory rhodopsin II from N. pharaonis …; assay: crystal structure; complex with the G83F mutant, space group P2_(1)2_(1)2, "V"-shape; crystallization conditions the same as for the wild type complex in the P6_(4) space group; details: both partners purified

With `CC1=C(/C=C/C(C)=C/C=C/C(C)=C/C=O)C(C)(C)CCC1` [all-trans retinal] the X-ray crystallography [1] was “the retinal chromophore switches from all-trans conformation to 13-cis”, the X-ray crystallography [2] was “crystal structure of the NpSRII/NpHtrII1–135-G83F mutant demonstrate different crystal packing” and the X-ray crystallography [3] was 5JJJ (NpSRII/HtrII-135 ground state).

In the case of `CC1=C(/C=C/C(C)=C/C=C/C(C)=C\C=O)C(C)(C)CCC1` [13-cis retinal], the “X-ray crystallography, trapped M intermediate” value [4] is reported as “the retinal chromophore switches from all-trans conformation to 13-cis”.

For NpSRII (from UniProt P42196), the Kd [5] is listed as 0.1 µM.

For “NpSRII (active state) (from UniProt P42196)”, the Kd [6] is listed as 15 µM.

B1: NpHtrII_(1-157), shortened cognate transducer of NpSRII (domain or fragment, N. pharaonis, UniProt P42259 1-157, looked up)
chain: MSLNVSRLLLPSRVRHSYTGKMGAVFIFVGALTVLFGAIAYGEVTAAAATGDAAAVQEAAVSAILGLIILLGINLGLVAATLGGDTAASLSTLAAKASRMGDGDLDVELETRREDEIGDLYAAFDEMRQSVRTSLEDAKNAREDAEQAQKRAEEINT
notes: NpHtrII, transducer of sensory rhodopsin II, N. pharaonis, residues 1-157 (transmembrane helices TM1 and TM2, HAMP1 and linker); only the transmembrane part is seen in the electron density; also called HtrII-157; the transducer; source: E. coli, purified, reconstituted into a functional complex, and resolubilized
B1: binds [7]; binds [8].

B2: NpHtrII_(1-135), shortened transducer (domain or fragment, N. pharaonis, UniProt P42259 1-135, looked up)
chain: MSLNVSRLLLPSRVRHSYTGKMGAVFIFVGALTVLFGAIAYGEVTAAAATGDAAAVQEAAVSAILGLIILLGINLGLVAATLGGDTAASLSTLAAKASRMGDGDLDVELETRREDEIGDLYAAFDEMRQSVRTSL
notes: source: E. coli, purified, reconstituted into a functional complex, and resolubilized
B2: binds [9].

B3: NpHtrII_(1-135)-G83F mutant (domain or fragment, N. pharaonis, UniProt P42259 1-135, looked up)
chain: MSLNVSRLLLPSRVRHSYTGKMGAVFIFVGALTVLFGAIAYGEVTAAAATGDAAAVQEAAVSAILGLIILLGINLGLVAATLFGDTAASLSTLAAKASRMGDGDLDVELETRREDEIGDLYAAFDEMRQSVRTSL
notes: as for B2
B3: binds [10].
